Test results: the supplement of paper PMC10126150
± gives the standard deviation of the averaged measurements.

Test system: ATP
Assay: switch fluorescence ratio, 500 uM ATP over buffer (Cy3 cluster intensity, sum of 5 cycles each) (fold (ratio)); higher = stronger signal-on switching upon ATP binding; sequences stand for … in TCGTCGGCAGCGTCAGATGTGTATAAGAGACAGTTTTTTTTTTTTTTTTTTTTTTTTT…TC
Conditions: aptamer strand: ATP DNA aptamer (quencher-CACCTGGGGGAGTATTGCGGAGGAAGG + anchor), 100 nM annealed; ATP concentration: 500 uM
Method in brief: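 Cy3-labelled switching-strand clusters on a modified Illumina MiSeq flow-cell were annealed to 100 nM quencher-labelled ATP aptamer and imaged first in selection buffer, then after 15 min with 500 uM ATP at 22 °C. NaOH stripping and re-annealing separated each of five buffer/ATP cycles, and clusters outside 100-1000 RFU were excluded. The fluorescence ratio sums target-cycle Cy3 intensity over buffer-cycle Cy3 intensity per cluster and averages it per switch-domain sequence.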
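Further: ATP exposure 15 min at 22 °C before imaging.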

ATAGTGATAC
switch fluorescence ratio: 3.28 ± 0.057

GACAATTTCT
switch fluorescence ratio: 1.02 ± 0.072

TGGCCGGTTT
switch fluorescence ratio: 1.01 ± 0.011

GTGCAAAATG
switch fluorescence ratio: 1.0339 ± 0.00075

GGGCAGACGT
switch fluorescence ratio: 0.971 ± 0.063

TGGGATATTC
switch fluorescence ratio: 0.9991 ± 0.0032

TAATGGGAAA
switch fluorescence ratio: 1.04 ± 0.013

TAACATCTGT
switch fluorescence ratio: 0.975 ± 0.021

AGGCATTAAT
switch fluorescence ratio: 1.01 ± 0.018

GCAAGAGGGT
switch fluorescence ratio: 1 ± 0.028

GAATGGGGAA
switch fluorescence ratio: 1.02 ± 0.021

TGCAATGGGG
switch fluorescence ratio: 1.12 ± 0.07

GGGGGGTCCC
switch fluorescence ratio: 0.9957 ± 0.0037

ACATCCGTCG
switch fluorescence ratio: 1.06 ± 0.022

AAATGCTACG
switch fluorescence ratio: 1.01 ± 0.029

CCATAGTTGC
switch fluorescence ratio: 1.57 ± 0.086

GGGGAGTGAC
switch fluorescence ratio: 1.025 ± 0.0086

GATAGACGGT
switch fluorescence ratio: 1.01 ± 0.047

GTGAAAAACT
switch fluorescence ratio: 1.03 ± 0.033

CGTTTGGGTA
switch fluorescence ratio: 0.999 ± 0.041

GCTTTGGGGA
switch fluorescence ratio: 1 ± 0.025

GTGGTCGATG
switch fluorescence ratio: 0.953 ± 0.043

CTTTCGAGAG
switch fluorescence ratio: 1 ± 0.025

TTAGGAACAT
switch fluorescence ratio: 1.2 ± 0.23

GAGAAAACCG
switch fluorescence ratio: 1.06 ± 0.092

ACTAGTCAAA
switch fluorescence ratio: 1.02 ± 0.012

TTTACCATTT
switch fluorescence ratio: 1.024 ± 0.0018

AGGAGGTGCT
switch fluorescence ratio: 0.965 ± 0.067

GGGTGAACAT
switch fluorescence ratio: 0.98659 ± 0.00029

AGGGGGTTCG
switch fluorescence ratio: 1.02 ± 0.027

TAATCGCCTG
switch fluorescence ratio: 0.981 ± 0.034

GGGTAAGAGA
switch fluorescence ratio: 1.04 ± 0.079

TTAGCATAGT
switch fluorescence ratio: 0.98 ± 0.024

TGAGAAAGGT
switch fluorescence ratio: 0.965 ± 0.044

TTTATTGA
switch fluorescence ratio: 0.989 ± 0.013

ATTCGGTTGT
switch fluorescence ratio: 1.001 ± 0.0059

CACGAAGACC
switch fluorescence ratio: 1.197 ± 0.0068

GGGATACGCT
switch fluorescence ratio: 1.03 ± 0.054

AAGGTCCGCT
switch fluorescence ratio: 1.05 ± 0.02

GGATGAGGCA
switch fluorescence ratio: 1.02 ± 0.022

GAGGTGGTTA
switch fluorescence ratio: 0.976 ± 0.015

AGGGTGGAGC
switch fluorescence ratio: 1.07 ± 0.092

AGAATGGAGG
switch fluorescence ratio: 0.994 ± 0.025

AGCTTGATGT
switch fluorescence ratio: 1.02 ± 0.053

CCTTTTCAGG
switch fluorescence ratio: 1.03 ± 0.023

GATGAAAGGT
switch fluorescence ratio: 1.002 ± 0.0047

TTTTGGCAGT
switch fluorescence ratio: 1.09 ± 0.013

TTATTTGATT
switch fluorescence ratio: 1.01 ± 0.029

GCGGGAAGCT
switch fluorescence ratio: 1.05 ± 0.044

GGTGATATAG
switch fluorescence ratio: 0.984 ± 0.021

TGGGCCGCGC
switch fluorescence ratio: 1.04 ± 0.046

TCAAAGAGGT
switch fluorescence ratio: 0.98204 ± 0.00058

GGAGCTGCGT
switch fluorescence ratio: 1.056 ± 0.0098

CGATGGTGGG
switch fluorescence ratio: 0.987 ± 0.0088

GATGAGGGGT
switch fluorescence ratio: 0.986 ± 0.038

CTGAATCCGT
switch fluorescence ratio: 1.25 ± 0.036

CTGGTGCCGA
switch fluorescence ratio: 0.985 ± 0.015

TAGCAGGTTA
switch fluorescence ratio: 1 ± 0.016

GGTTAGGGG
switch fluorescence ratio: 0.99 ± 0.028

CGTCTAGAGA
switch fluorescence ratio: 1.02 ± 0.073

GGCATAGAGG
switch fluorescence ratio: 1.03 ± 0.0032

TTATTAGCTT
switch fluorescence ratio: 0.9916 ± 0.004

CCGAACGTTT
switch fluorescence ratio: 2.31 ± 0.47

TTTATGAACT
switch fluorescence ratio: 1.02 ± 0.042

TAAAGTAAAT
switch fluorescence ratio: 0.9668 ± 0.0028

CTGAACTTTA
switch fluorescence ratio: 1.04 ± 0.043

GCTTCTGGCA
switch fluorescence ratio: 0.999 ± 0.023

AAATAGGTGG
switch fluorescence ratio: 0.996 ± 0.024

TCTGAGGTAT
switch fluorescence ratio: 1.03 ± 0.034

CCGAGAAGAG
switch fluorescence ratio: 1.58 ± 0.021

GTATGGGGTT
switch fluorescence ratio: 0.9641 ± 0.0085

TTTGAGTGCG
switch fluorescence ratio: 0.973 ± 0.025

TGAAATTACT
switch fluorescence ratio: 1.05 ± 0.033

ACGGTGCCAA
switch fluorescence ratio: 1.02 ± 0.034

TGGAAATTGG
switch fluorescence ratio: 1.01 ± 0.02

ATGGATAT
switch fluorescence ratio: 0.98 ± 0.031

GGGTGGAGGG
switch fluorescence ratio: 0.973 ± 0.012

CTGGTCTATT
switch fluorescence ratio: 0.968 ± 0.017

AATTTAAATG
switch fluorescence ratio: 0.977 ± 0.03

CACAAGCACT
switch fluorescence ratio: 1.28 ± 0.069

ATAGGGAATT
switch fluorescence ratio: 1 ± 0.024

AGGATAAATT
switch fluorescence ratio: 0.983 ± 0.025

ACGGGGGTT
switch fluorescence ratio: 0.98 ± 0.017

TGGGTGTGGT
switch fluorescence ratio: 1 ± 0.025

AATACGACGG
switch fluorescence ratio: 1.14 ± 0.014

AATGAATGAG
switch fluorescence ratio: 0.971 ± 0.022

AATAGCATGG
switch fluorescence ratio: 1.03 ± 0.024

TCTAACCTGG
switch fluorescence ratio: 1.006 ± 0.0042

TTTAAGGTAG
switch fluorescence ratio: 0.993 ± 0.018

TTCGGTAGTG
switch fluorescence ratio: 0.9923 ± 0.0083

AAGGAAGGAG
switch fluorescence ratio: 1.03 ± 0.038

CGTGTTTTAC
switch fluorescence ratio: 1.018 ± 0.007

AGTTTACCGG
switch fluorescence ratio: 1.01 ± 0.022

GGGATAATGG
switch fluorescence ratio: 0.968 ± 0.032

CGGCATGAGG
switch fluorescence ratio: 0.972 ± 0.018

AAATGAGGGG
switch fluorescence ratio: 0.992 ± 0.03

CAGCTGGATG
switch fluorescence ratio: 0.993 ± 0.029

CTGAGGATCG
switch fluorescence ratio: 0.994 ± 0.034

TATTTTTGGC
switch fluorescence ratio: 1.01 ± 0.018

ATGTGATGAA
switch fluorescence ratio: 0.973 ± 0.019

TTTTCATAAC
switch fluorescence ratio: 1 ± 0.051

CCGGGGGGGA
switch fluorescence ratio: 1.13 ± 0.23

CTCAAAAGA
switch fluorescence ratio: 1.11 ± 0.077

ATGGATCCGG
switch fluorescence ratio: 1.03 ± 0.083

GATCGGGGGG
switch fluorescence ratio: 0.983 ± 0.041

TATTTAGGAA
switch fluorescence ratio: 0.9498 ± 0.0078

AATGGGACTT
switch fluorescence ratio: 1.02 ± 0.015

TCTTACGAAG
switch fluorescence ratio: 1.27 ± 0.27

GGGGGCTGCT
switch fluorescence ratio: 0.962 ± 0.029

TAAAATAGGG
switch fluorescence ratio: 1.01 ± 0.018

TTAAAGTTGT
switch fluorescence ratio: 1.03 ± 0.07

CATTTTGTGC
switch fluorescence ratio: 0.988 ± 0.052

GGGAGAAAGT
switch fluorescence ratio: 0.9995 ± 0.0034

TTTCAACGAT
switch fluorescence ratio: 1 ± 0.029

ATGTAGGGGA
switch fluorescence ratio: 1.0051 ± 0.001

CGTTTGGCGT
switch fluorescence ratio: 1.12 ± 0.2

GGGGCTAACG
switch fluorescence ratio: 1.02 ± 0.03

TGTGTGCTGA
switch fluorescence ratio: 1.02 ± 0.028

GTAGGACATC
switch fluorescence ratio: 1.01 ± 0.023

AGAGGTCCGA
switch fluorescence ratio: 0.991 ± 0.037

ATGCAATCAT
switch fluorescence ratio: 1.038 ± 0.0026

ACTGTCGGGC
switch fluorescence ratio: 1.03 ± 0.025

AGGTGATATG
switch fluorescence ratio: 1.0171 ± 0.00075

GGGAAAACGC
switch fluorescence ratio: 1.02 ± 0.015

GTAGTGTGGT
switch fluorescence ratio: 0.999 ± 0.012

TTTTTTCACT
switch fluorescence ratio: 1.17 ± 0.34

GGTATATTGG
switch fluorescence ratio: 1.01 ± 0.012

GATACGAAGT
switch fluorescence ratio: 0.981 ± 0.028

TTCGGGAGTG
switch fluorescence ratio: 0.985 ± 0.02

TAGGGAAGAG
switch fluorescence ratio: 0.996 ± 0.041

AATGGGATAC
switch fluorescence ratio: 1.16 ± 0.027

ATATTGGCGC
switch fluorescence ratio: 1.01 ± 0.019

TAAGGAATTG
switch fluorescence ratio: 1.01 ± 0.045

TCCGGGGGGC
switch fluorescence ratio: 1.15 ± 0.18

GTTGTTTTTT
switch fluorescence ratio: 0.988 ± 0.036

AAATGAATTT
switch fluorescence ratio: 0.976 ± 0.014

AGCCGGCGGT
switch fluorescence ratio: 1.02 ± 0.019

TTTGGGGACG
switch fluorescence ratio: 1.01 ± 0.019

GGCATTATTT
switch fluorescence ratio: 1.02 ± 0.023

TTAATGGGTG
switch fluorescence ratio: 1.05 ± 0.015

TAAGGGCAGA
switch fluorescence ratio: 1.02 ± 0.045

ACCGGGCCCT
switch fluorescence ratio: 1.008 ± 0.0093

GTGAGATCGG
switch fluorescence ratio: 0.991 ± 0.029

CGGTTGGGCT
switch fluorescence ratio: 1.01 ± 0.054

GCAGCATGC
switch fluorescence ratio: 1.1 ± 0.17

AGATTACCTT
switch fluorescence ratio: 1.06 ± 0.017

TAATTGT
switch fluorescence ratio: 0.976 ± 0.03

GGCTGGCAGT
switch fluorescence ratio: 0.988 ± 0.015

TTGGGATGGT
switch fluorescence ratio: 1.02 ± 0.029

TTTTTTACCT
switch fluorescence ratio: 1.2 ± 0.015

GGTTGAAAAA
switch fluorescence ratio: 0.985 ± 0.053

AAGTGTTAAT
switch fluorescence ratio: 0.9955 ± 0.0031

TCTACTAT
switch fluorescence ratio: 1.06 ± 0.031

GGTTTTGCCA
switch fluorescence ratio: 0.995 ± 0.034

ACAGGAGTTT
switch fluorescence ratio: 0.999 ± 0.01

GCGATCTGGA
switch fluorescence ratio: 1.04 ± 0.022

ATGGTGAATT
switch fluorescence ratio: 1.016 ± 0.0044
